Results as given in patent US6852509 (dated 2005).

Molecular target: T1, wild-type p53 protein (UniProt P04637 1-393)
T1 construct: also called purified p53
Assay: ELISA on plates coated with purified p53
Source text: The two IgGs are then visualized using a secondary anti-IgG antibody which is coupled to alkaline phosphatase. The biotinylated serum is visualized using extravidin which is coupled to alkaline phosphatase. The ScFvs are visualized using the anti-myc antibody 9E10 and then using an anti-IgG antibody which is coupled to alkaline phosphatase.

T1 sequence (P04637 whole entry): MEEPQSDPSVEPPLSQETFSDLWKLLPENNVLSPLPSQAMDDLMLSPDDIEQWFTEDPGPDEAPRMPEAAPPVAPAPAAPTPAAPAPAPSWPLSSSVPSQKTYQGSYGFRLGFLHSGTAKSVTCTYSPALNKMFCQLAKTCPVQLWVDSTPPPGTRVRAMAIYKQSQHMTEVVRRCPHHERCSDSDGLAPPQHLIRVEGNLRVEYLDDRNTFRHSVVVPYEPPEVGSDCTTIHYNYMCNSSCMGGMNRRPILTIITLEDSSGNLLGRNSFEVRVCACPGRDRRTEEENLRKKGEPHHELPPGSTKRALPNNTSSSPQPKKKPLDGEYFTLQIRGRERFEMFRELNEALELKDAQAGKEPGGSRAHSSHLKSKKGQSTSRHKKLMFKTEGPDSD

Binder | binding result
ScFv 11D3-myc (scFv, Produced from bacterial periplasm; also called 11D3 ScFv; D3M ScFv; not shown: myc tag fused for detection) scFv: QVKLQESGAELVRSGASVNLSCTASGFNIKDYYMHWVKQRPEEGLEWIGYIDPESGETEYAPNFQGKATVTADTSSNTAYLHLSSLTSEDTTVYYCNAVIYYEYDGYALDYWGQGTTVTVSSGGGGSGGGGSGGGGSDIELTQSPSSLAVSAGEKVAMSCKSSQSLFNSRTRKNYLAWYQQKPGQSPKVLIYWASTRESGVPDRFTGSGSGTDFTLTISSVQAEDLAVYYCKQSYNLPTFGGGTKLEIK | binds
ScFv 421-myc (scFv, Produced from bacterial periplasm; not shown: myc tag fused for detection) scFv: QVQLQQSGAELVRSGASVKLSCTASGFNIKDYYMHWVKQRPEQGLEWIGWIDPENGDTEYAPKFQGKATMTADTSSNTAYLQLSSLASEDTAVYYCNFYGDALDYWGQGTTVTVSSGGGGSGGGGSGGGGSDVLMTQTPLTLSVTIGQPASISCKSSQSLLDSDGKTYLNWLLQRPGQSPKRLIYLVSKLDSGVPDRFTGSGSGTDFTLKINRVEAEDLGVYYCWQGTHSPLTFGAGTKLEIK | binds
